Experimental data taken from paper PMC10170137 (Nature Communications, 2023).

T1: EcProA (Escherichia coli, UniProt P07004)
T1 construct: gene proA
T1 sequence (P07004 1-417): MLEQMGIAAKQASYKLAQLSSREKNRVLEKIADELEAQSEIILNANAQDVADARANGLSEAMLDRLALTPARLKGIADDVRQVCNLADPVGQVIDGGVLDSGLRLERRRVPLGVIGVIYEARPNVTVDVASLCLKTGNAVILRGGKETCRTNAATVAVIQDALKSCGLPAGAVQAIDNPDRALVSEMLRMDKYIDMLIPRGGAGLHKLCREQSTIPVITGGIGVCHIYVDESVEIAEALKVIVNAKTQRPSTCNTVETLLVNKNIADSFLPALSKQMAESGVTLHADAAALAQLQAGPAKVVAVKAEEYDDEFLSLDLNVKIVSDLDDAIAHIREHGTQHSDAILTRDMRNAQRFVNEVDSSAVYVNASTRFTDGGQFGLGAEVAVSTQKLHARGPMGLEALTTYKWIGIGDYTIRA

T2: EcArgC (Escherichia coli, UniProt P11446)
T2 construct: gene argC
T2 sequence (P11446 1-334): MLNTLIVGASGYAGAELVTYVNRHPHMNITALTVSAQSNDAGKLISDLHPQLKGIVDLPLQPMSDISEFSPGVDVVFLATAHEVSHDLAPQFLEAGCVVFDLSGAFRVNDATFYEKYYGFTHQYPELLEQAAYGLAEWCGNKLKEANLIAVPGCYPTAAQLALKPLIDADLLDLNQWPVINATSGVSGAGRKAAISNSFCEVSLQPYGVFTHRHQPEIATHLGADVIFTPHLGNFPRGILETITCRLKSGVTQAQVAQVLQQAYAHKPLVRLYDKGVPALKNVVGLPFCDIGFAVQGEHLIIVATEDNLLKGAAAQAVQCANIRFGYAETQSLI

T3: EcASD (Escherichia coli, UniProt P0A9Q9)
T3 construct: gene asd
T3 sequence (P0A9Q9 1-367): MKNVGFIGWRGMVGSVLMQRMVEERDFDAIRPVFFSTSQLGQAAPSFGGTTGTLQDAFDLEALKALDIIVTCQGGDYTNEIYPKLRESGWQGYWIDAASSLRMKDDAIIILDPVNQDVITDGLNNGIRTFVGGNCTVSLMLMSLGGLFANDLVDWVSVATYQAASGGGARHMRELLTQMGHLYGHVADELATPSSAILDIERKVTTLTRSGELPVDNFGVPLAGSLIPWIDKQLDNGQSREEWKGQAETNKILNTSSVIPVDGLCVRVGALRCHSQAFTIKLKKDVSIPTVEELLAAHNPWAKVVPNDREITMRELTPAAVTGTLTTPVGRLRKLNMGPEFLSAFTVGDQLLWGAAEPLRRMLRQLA

T4: DaArgC (Denitrovibrio acetiphilus, UniProt D4H3H4)
T4 construct: gene argC; dimer
T4 sequence (D4H3H4 1-334): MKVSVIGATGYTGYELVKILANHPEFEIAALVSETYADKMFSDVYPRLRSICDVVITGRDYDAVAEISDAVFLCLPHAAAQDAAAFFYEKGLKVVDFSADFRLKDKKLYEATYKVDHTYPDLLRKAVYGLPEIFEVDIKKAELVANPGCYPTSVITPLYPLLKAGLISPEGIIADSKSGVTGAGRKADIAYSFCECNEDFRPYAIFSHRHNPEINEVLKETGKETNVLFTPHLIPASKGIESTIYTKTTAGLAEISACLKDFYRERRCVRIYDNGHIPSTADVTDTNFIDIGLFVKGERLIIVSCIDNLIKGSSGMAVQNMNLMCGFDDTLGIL


Key:
[1] = target: T1, EcProA; test: Nash assay of formaldehyde; coupled to EcAckA; type: biochemical; details: formyl phosphate made in situ by 2 µM EcAckA from 50 mM ammonium formate and 5 mM ATP; 250 µM NAD(P)H, 1 mM CoA, 10 mM MgCl2, MOPS-KOH pH 7.0, 30 °C
[2] = target: T5, EcGapA (Escherichia coli, UniProt P0A9B2); test: Nash assay of formaldehyde; coupled to EcAckA; type: biochemical; details: formyl phosphate made in situ by 2 µM EcAckA from 50 mM ammonium formate and 5 mM ATP; 250 µM NAD(P)H, 1 mM CoA, 10 mM MgCl2, MOPS-KOH pH 7.0, 30 °C
T5 construct: gene gapA
T5 sequence (P0A9B2 2-331): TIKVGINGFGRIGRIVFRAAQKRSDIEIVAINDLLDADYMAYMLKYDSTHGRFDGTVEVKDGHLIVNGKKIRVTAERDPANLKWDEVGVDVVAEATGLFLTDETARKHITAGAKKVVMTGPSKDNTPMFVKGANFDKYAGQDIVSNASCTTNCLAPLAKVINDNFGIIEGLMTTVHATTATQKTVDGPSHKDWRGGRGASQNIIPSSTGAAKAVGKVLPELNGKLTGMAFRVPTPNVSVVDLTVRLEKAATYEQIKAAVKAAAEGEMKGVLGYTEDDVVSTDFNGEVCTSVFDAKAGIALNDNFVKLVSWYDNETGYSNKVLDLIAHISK

[3] = target: T2, EcArgC; test: Nash assay of formaldehyde; coupled to EcAckA; type: biochemical; details: formyl phosphate made in situ by 2 µM EcAckA from 50 mM ammonium formate and 5 mM ATP; 250 µM NAD(P)H, 1 mM CoA, 10 mM MgCl2, MOPS-KOH pH 7.0, 30 °C
[4] = target: T3, EcASD; test: Nash assay of formaldehyde; coupled to EcAckA; type: biochemical; details: formyl phosphate made in situ by 2 µM EcAckA from 50 mM ammonium formate and 5 mM ATP; 250 µM NAD(P)H, 1 mM CoA, 10 mM MgCl2, MOPS-KOH pH 7.0, 30 °C
[5] = target: T4, DaArgC; test: Nash assay of formaldehyde, inhibition of formyl phosphate reductase activity; coupled to EcAckA; type: biochemical; details: read-out: N-acetyl-γ-glutamate / IC50
Excerpt: (§1) Nash assay of formaldehyde, inhibition of formyl phosphate reductase activity; coupled to EcAckA on DaArgC

[6] = target: T6, DaArgC (Denitrovibrio acetiphilus, UniProt D4H3H4, G182V/L233I/S178V); test: as above; type: biochemical; details: read-out: N-acetyl-γ-glutamate / IC50
T6 construct: gene argC; dimer
Excerpt: as §1

[7] = target: the molecule itself; test: SEC; HiLoad 16/600 Superdex 200 pg in SEC buffer (75 mM KCl, 25 mM HEPES-KOH pH 7.8), loaded straight after Ni affinity purification, before crystallisation
[8] = substrate: NC(=O)C1=CN([C@@H]2O[C@H](COP(=O)(O)OP(=O)(O)OC[C@H]3O[C@@H](n4cnc5c(N)ncnc54)[C@H](OP(=O)(O)O)[C@@H]3O)[C@@H](O)[C@H]2O)C=CC1; test: Nash assay of formaldehyde, fluorescence; coupled to EcAckA; type: biochemical, Denitrovibrio acetiphilus; details: formyl phosphate made in situ by 10 µM EcAckA from 500 mM ammonium formate and 5 mM ATP, 10 mM MgCl2, MOPS-KOH pH 7.0, 30 °C, varied: cofactor
Excerpt: (§2) Nash assay of formaldehyde, fluorescence; coupled to EcAckA on DaArgC

[9] = substrate: O=COP(=O)(O)O; test: Nash assay of formaldehyde, initial slopes, synthetic formyl phosphate; type: biochemical, Denitrovibrio acetiphilus; details: 1 mM NADPH, 10 mM MgCl2, MOPS pH 7.0, 30 °C, freshly synthesized crude formyl phosphate
Excerpt: Nash assay of formaldehyde, initial slopes, synthetic formyl phosphate on […]

[10] = substrate: NC(=O)C1=CN([C@@H]2O[C@H](COP(=O)(O)OP(=O)(O)OC[C@H]3O[C@@H](n4cnc5c(N)ncnc54)[C@H](O)[C@@H]3O)[C@@H](O)[C@H]2O)C=CC1; test: Nash assay of formaldehyde, fluorescence; coupled to EcAckA; type: biochemical, Denitrovibrio acetiphilus; details: formyl phosphate made in situ by 10 µM EcAckA from 250 mM ammonium formate and 5 mM ATP, 10 mM MgCl2, MOPS-KOH pH 7.0, 30 °C, varied: cofactor
Excerpt: as §2

Molecule | Km [8] [µM] | kcat [8] [s⁻¹] | kcat/Km [8] [M⁻¹ s⁻¹] | Km [9] [µM] | kcat [9] [s⁻¹] | kcat/Km [9] [M⁻¹ s⁻¹] | Km [10] [µM] | kcat [10] [s⁻¹] | kcat/Km [10] [M⁻¹ s⁻¹] | other results
O=COP(=O)(O)O [formyl phosphate] | – | – | – | – | – | – | – | – | – | Nash assay of formaldehyde; coupled to EcAckA [1]: (EcASD, EcArgC, EcGapA, EcProA), we detected FPR activity in all cases; Nash assay of formaldehyde; coupled to EcAckA [2]: EcArgC and EcGapA performed best under the chosen conditions; Nash assay of formaldehyde; coupled to EcAckA [3]: EcArgC and EcGapA performed best under the chosen conditions; Nash assay of formaldehyde; coupled to EcAckA [4]: (EcASD, EcArgC, EcGapA, EcProA), we detected FPR activity in all cases
CC(=O)N[C@@H](CCC(=O)O)C(=O)O [N-acetyl-γ-glutamate] | – | – | – | – | – | – | – | – | – | IC50 [5]: 5.1 ± 1 mM; IC50 [6]: 24.6 ± 7.9 mM
Denitrovibrio acetiphilus N-acetyl-γ-glutamyl phosphate reductase (DaArgC), wild type (enzyme, N-acetyl-γ-glutamyl phosphate reductase (ArgC) of Denitrovibrio acetiphilus; also called WT DaArgC; Denitrovibrio acetiphilus N-acetyl-γ-glutamyl phosphate dehydrogenase; source: E. coli BL21 (DE3), purified (Ni-Sepharose HisTrap FF, Superdex 200 SEC)) MKVSVIGATGYTGYELVKILANHPEFEIAALVSETYADKMFSDVYPRLRSICDVVITGRDYDAVAEISDAVFLCLPHAAAQDAAAFFYEKGLKVVDFSADFRLKDKKLYEATYKVDHTYPDLLRKAVYGLPEIFEVDIKKAELVANPGCYPTSVITPLYPLLKAGLISPEGIIADSKSGVTGAGRKADIAYSFCECNEDFRPYAIFSHRHNPEINEVLKETGKETNVLFTPHLIPASKGIESTIYTKTTAGLAEISACLKDFYRERRCVRIYDNGHIPSTADVTDTNFIDIGLFVKGERLIIVSCIDNLIKGSSGMAVQNMNLMCGFDDTLGIL | 160 ± 20 | 0.66 ± 0.03 | 4100 | – | – | – | – | – | – | binding result [7]: binds
DaArgC (Denitrovibrio acetiphilus DSM 12809; G182V/S178V) (protein, dimer) MKVSVIGATGYTGYELVKILANHPEFEIAALVSETYADKMFSDVYPRLRSICDVVITGRDYDAVAEISDAVFLCLPHAAAQDAAAFFYEKGLKVVDFSADFRLKDKKLYEATYKVDHTYPDLLRKAVYGLPEIFEVDIKKAELVANPGCYPTSVITPLYPLLKAGLISPEGIIADSKVGVTVAGRKADIAYSFCECNEDFRPYAIFSHRHNPEINEVLKETGKETNVLFTPHLIPASKGIESTIYTKTTAGLAEISACLKDFYRERRCVRIYDNGHIPSTADVTDTNFIDIGLFVKGERLIIVSCIDNLIKGSSGMAVQNMNLMCGFDDTLGIL | 60 ± 20 | 0.26 ± 0.03 | 4300 | 38000 ± 9000 | 0.17 ± 0.02 | 3.1 | 300 ± 40 | 0.12 ± 0.00 | 400 | –
DaArgC (Denitrovibrio acetiphilus DSM 12809; G182V) (protein, dimer) MKVSVIGATGYTGYELVKILANHPEFEIAALVSETYADKMFSDVYPRLRSICDVVITGRDYDAVAEISDAVFLCLPHAAAQDAAAFFYEKGLKVVDFSADFRLKDKKLYEATYKVDHTYPDLLRKAVYGLPEIFEVDIKKAELVANPGCYPTSVITPLYPLLKAGLISPEGIIADSKSGVTVAGRKADIAYSFCECNEDFRPYAIFSHRHNPEINEVLKETGKETNVLFTPHLIPASKGIESTIYTKTTAGLAEISACLKDFYRERRCVRIYDNGHIPSTADVTDTNFIDIGLFVKGERLIIVSCIDNLIKGSSGMAVQNMNLMCGFDDTLGIL | 40 ± 10 | 0.14 ± 0.02 | 3500 | 31000 ± 7000 | 0.11 ± 0.01 | 2.4 | 280 ± 50 | 0.08 ± 0.00 | 280 | –
DaArgC (Denitrovibrio acetiphilus DSM 12809; G182V/L233I/S178V) (protein, dimer) MKVSVIGATGYTGYELVKILANHPEFEIAALVSETYADKMFSDVYPRLRSICDVVITGRDYDAVAEISDAVFLCLPHAAAQDAAAFFYEKGLKVVDFSADFRLKDKKLYEATYKVDHTYPDLLRKAVYGLPEIFEVDIKKAELVANPGCYPTSVITPLYPLLKAGLISPEGIIADSKVGVTVAGRKADIAYSFCECNEDFRPYAIFSHRHNPEINEVLKETGKETNVLFTPHIIPASKGIESTIYTKTTAGLAEISACLKDFYRERRCVRIYDNGHIPSTADVTDTNFIDIGLFVKGERLIIVSCIDNLIKGSSGMAVQNMNLMCGFDDTLGIL | 50 ± 10 | 0.23 ± 0.02 | 4600 | 18000 ± 7000 | 0.12 ± 0.02 | 4.6 | 340 ± 50 | 0.09 ± 0.00 | 260 | –
DaArgC3, triple substitution variant (G182V, S178V, L233I) of Denitrovibrio acetiphilus N-acetyl-γ-glutamyl phosphate reductase (enzyme, N-acetyl-γ-glutamyl phosphate reductase (ArgC) of Denitrovibrio acetiphilus with G182V, S178V and L233I; Found by iterative saturation mutagenesis of DaArgC; also called formyl phosphate reductase variant; source: E. coli BL21 (DE3), purified (Ni-Sepharose HisTrap FF, Superdex 200 SEC)) MKVSVIGATGYTGYELVKILANHPEFEIAALVSETYADKMFSDVYPRLRSICDVVITGRDYDAVAEISDAVFLCLPHAAAQDAAAFFYEKGLKVVDFSADFRLKDKKLYEATYKVDHTYPDLLRKAVYGLPEIFEVDIKKAELVANPGCYPTSVITPLYPLLKAGLISPEGIIADSKVGVTVAGRKADIAYSFCECNEDFRPYAIFSHRHNPEINEVLKETGKETNVLFTPHIIPASKGIESTIYTKTTAGLAEISACLKDFYRERRCVRIYDNGHIPSTADVTDTNFIDIGLFVKGERLIIVSCIDNLIKGSSGMAVQNMNLMCGFDDTLGIL | – | – | – | – | – | – | – | – | – | binding result [7]: binds
